# Test results from patent US20260055205A1 (published 2026).
# Biological target: T1, human PSMA (human, UniProt Q04609 44-750, limits assumed)
# T1 construct: also called huPSMA; hPSMA
# Test: binding screen
# T1 sequence (Q04609 44-750 limits assumed): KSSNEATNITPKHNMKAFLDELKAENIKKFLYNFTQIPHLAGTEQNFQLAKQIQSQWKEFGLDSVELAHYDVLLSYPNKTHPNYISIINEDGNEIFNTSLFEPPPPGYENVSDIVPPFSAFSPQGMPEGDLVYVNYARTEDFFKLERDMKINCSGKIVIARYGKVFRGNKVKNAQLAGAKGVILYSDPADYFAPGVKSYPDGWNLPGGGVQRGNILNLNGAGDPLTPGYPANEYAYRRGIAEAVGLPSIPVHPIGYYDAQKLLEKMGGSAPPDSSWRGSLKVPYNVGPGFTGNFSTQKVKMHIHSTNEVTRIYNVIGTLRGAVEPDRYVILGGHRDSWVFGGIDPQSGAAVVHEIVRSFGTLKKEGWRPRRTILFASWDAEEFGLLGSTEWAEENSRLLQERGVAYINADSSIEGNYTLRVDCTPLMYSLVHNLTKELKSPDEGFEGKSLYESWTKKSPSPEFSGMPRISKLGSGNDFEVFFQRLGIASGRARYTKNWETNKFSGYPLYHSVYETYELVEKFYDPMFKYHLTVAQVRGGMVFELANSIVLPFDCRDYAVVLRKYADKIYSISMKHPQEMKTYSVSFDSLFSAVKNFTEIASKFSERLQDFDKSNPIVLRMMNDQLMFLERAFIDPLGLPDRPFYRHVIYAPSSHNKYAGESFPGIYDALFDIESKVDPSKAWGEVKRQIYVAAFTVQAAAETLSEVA
Binder,binding result,Kd [nM]
"PSMA.323 (bispecific antibody, V domains shown, TCE with CD3.23; also called AC3725) VH: QVQLVESGGGVVQPGRSLRLSCAASGRTFGIYVMGWFRQAPGKEREFVGAISWSGSNRKVSDSVKGRFTISRDNSKNTLYLQMNSLRAEDTAVTYCAGSNKLYGRTWYDFNESDYWGQGTQVTVSS",no binding,–
"PSMA.350 (bispecific antibody, V domains shown, TCE with CD3.23; also called AC3752) VH: QVQLVESGGGVVQPGRSLRLSCAASGRTFGIYVWGWFRQAPGKEREFVGAMSWSGSNRKVSDSVKGRFTISRDNSKNTLYLQMNSLRAEDTAVYYCAASNKEYGRTWYDFNESDYWGQGTQVTVSS",–,7.4
"PSMA.353 (bispecific antibody, V domains shown, TCE with CD3.23; also called AC3755) VH: QVQLVESGGGVVQPGRSLRLSCAASGRTFGIYVWGWFRQAPGKEREFVGAMSWSGSNRKVSDSVKGRFTISRDNSKNTLYLQMNSLRAEDTAVYFCGASNKLYGRTWYDFNESDYWGQGTQVTVSS",–,5.1
"PSMA.345 (bispecific antibody, V domains shown, TCE with CD3.23; also called AC3747) VH: QVQLVESGGGVVQPGRSLRLSCAASGRTFGIYVWGWFRQAPGKEREFVGAMSWSGSNRKVSDSVKGRFTISRDNSKNTLYLQMNSLRAEDTAVYYCGGSNKLYGRTWYDFNESDYWGQGTQVTVSS",–,6.1
"PSMA.331 (bispecific antibody, V domains shown, TCE with CD3.23; also called AC3733) VH: QVQLVESGGGVVQPGRSLRLSCAASGRTFGIYVMGWFRQAPGKEREFVGAISWSGSNRKVSDSVKGRFTISRDNSKNTLYLQMNSLRAEDTAVYFCGASNKLYGRTWYDFNESDYWGQGTQVTVSS",–,12.1
"PSMA.329 (bispecific antibody, V domains shown, TCE with CD3.23; also called AC3731) VH: QVQLVESGGGVVQPGRSLRLSCAASGRTFGIYVMGWFRQAPGKEREFVGAISWSGSNRKVSDSVKGRFTISRDNSKNTLYLQMNSLRAEDTAVKFCAASNKLYGRTWYDFNESDYWGQGTQVTVSS",no binding,–
"PSMA.351 (bispecific antibody, V domains shown, TCE with CD3.23; also called AC3753) VH: QVQLVESGGGVVQPGRSLRLSCAASGRTFGIYVWGWFRQAPGKEREFVGAMSWSGSNRKVSDSVKGRFTISRDNSKNTLYLQMNSLRAEDTAVYYCAASNKGYGRTWYDFNESDYWGQGTQVTVSS",–,32.6
"PSMA.332 (bispecific antibody, V domains shown, TCE with CD3.23; also called AC3734) VH: QVQLVESGGGVVQPGRSLRLSCAASGRTFGIYVMGWFRQAPGKEREFVGAISWSGSNRKVSDSVKGRFTISRDNSKNTLYLQMNSLRAEDTAVYFCAGSNKLYGRTWYDFNESDYWGQGTQVTVSS",–,24.1
"PSMA.336 (bispecific antibody, V domains shown, TCE with CD3.23; also called AC3738) VH: QVQLVESGGGVVQPGRSLRLSCAASGRTFGIYVMGWFRQAPGKEREFVGAISWSGSNRKVSDSVKGRFTISRDNSKNTLYLQMNSLRAEDTAVYFCAASNKGYGRTWYDFNESDYWGQGTQVTVSS",–,129
"PSMA.355 (bispecific antibody, V domains shown, TCE with CD3.23; also called AC3757) VH: QVQLVESGGGVVQPGRSLRLSCAASGRTFGIYVWGWFRQAPGKEREFVGAMSWSGSNRKVSDSVKGRFTISRDNSKNTLYLQMNSLRAEDTAVYFCAASNKDYGRTWYDFNESDYWGQGTQVTVSS",–,17.8
"PSMA.328 (bispecific antibody, V domains shown, TCE with CD3.23; also called AC3730) VH: QVQLVESGGGVVQPGRSLRLSCAASGRTFGIYVMGWFRQAPGKEREFVGAISWSGSNRKVSDSVKGRFTISRDNSKNTLYLQMNSLRAEDTAVGFCAASNKLYGRTWYDFNESDYWGQGTQVTVSS",no binding,–
"PSMA.330 (bispecific antibody, V domains shown, TCE with CD3.23; also called AC3732) VH: QVQLVESGGGVVQPGRSLRLSCAASGRTFGIYVMGWFRQAPGKEREFVGAISWSGSNRKVSDSVKGRFTISRDNSKNTLYLQMNSLRAEDTAVSFCAASNKLYGRTWYDFNESDYWGQGTQVTVSS",no binding,–
"PSMA.349 (bispecific antibody, V domains shown, TCE with CD3.23; also called AC3751) VH: QVQLVESGGGVVQPGRSLRLSCAASGRTFGIYVWGWFRQAPGKEREFVGAMSWSGSNRKVSDSVKGRFTISRDNSKNTLYLQMNSLRAEDTAVYYCAASNKDYGRTWYDFNESDYWGQGTQVTVSS",–,18
"PSMA.325 (bispecific antibody, V domains shown, TCE with CD3.23; also called AC3727) VH: QVQLVESGGGVVQPGRSLRLSCAASGRTFGIYVMGWFRQAPGKEREFVGAISWSGSNRKVSDSVKGRFTISRDNSKNTLYLQMNSLRAEDTAVRFCAASNKLYGRTWYDFNESDYWGQGTQVTVSS",no binding,–
"PSMA.343 (bispecific antibody, V domains shown, TCE with CD3.23; also called AC3745) VH: QVQLVESGGGVVQPGRSLRLSCAASGRTFGIYVMGWFRQAPGKEREFVGAISWSGSNRKVSDSVKGRFTISRDNSKNTLYLQMNSLRAEDTAVTFCAGSNKLYGRTWYDFNESDYWGQGTQVTVSS",no binding,–
"PSMA.324 (bispecific antibody, V domains shown, TCE with CD3.23; also called AC3726) VH: QVQLVESGGGVVQPGRSLRLSCAASGRTFGIYVMGWFRQAPGKEREFVGAISWSGSNRKVSDSVKGRFTISRDNSKNTLYLQMNSLRAEDTAVAFCAASNKLYGRTWYDFNESDYWGQGTQVTVSS",no binding,–
"PSMA.346 (bispecific antibody, V domains shown, TCE with CD3.23; also called AC3748) VH: QVQLVESGGGVVQPGRSLRLSCAASGRTFGIYVWGWFRQAPGKEREFVGAMSWSGSNRKVSDSVKGRFTISRDNSKNTLYLQMNSLRAEDTAVDYCAASNKLYGRTWYDFNESDYWGQGTQVTVSS",no binding,–
"PSMA.347 (bispecific antibody, V domains shown, TCE with CD3.23; also called AC3749) VH: QVQLVESGGGVVQPGRSLRLSCAASGRTFGIYVWGWFRQAPGKEREFVGAMSWSGSNRKVSDSVKGRFTISRDNSKNTLYLQMNSLRAEDTAVYYCGASNKLYGRTWYDFNESDYWGQGTQVTVSS",–,7.3
"PSMA.356 (bispecific antibody, V domains shown, TCE with CD3.23; also called AC3758) VH: QVQLVESGGGVVQPGRSLRLSCAASGRTFGIYVWGWFRQAPGKEREFVGAMSWSGSNRKVSDSVKGRFTISRDNSKNTLYLQMNSLRAEDTAVYFCAASNKEYGRTWYDFNESDYWGQGTQVTVSS",–,7.8
"PSMA.357 (bispecific antibody, V domains shown, TCE with CD3.23; also called AC3759) VH: QVQLVESGGGVVQPGRSLRLSCAASGRTFGIYVWGWFRQAPGKEREFVGAMSWSGSNRKVSDSVKGRFTISRDNSKNTLYLQMNSLRAEDTAVYFCAASNKGYGRTWYDFNESDYWGQGTQVTVSS",–,24.6
"PSMA.335 (bispecific antibody, V domains shown, TCE with CD3.23; also called AC3737) VH: QVQLVESGGGVVQPGRSLRLSCAASGRTFGIYVMGWFRQAPGKEREFVGAISWSGSNRKVSDSVKGRFTISRDNSKNTLYLQMNSLRAEDTAVYFCAASNKEYGRTWYDFNESDYWGQGTQVTVSS",–,24.8
"PSMA.334 (bispecific antibody, V domains shown, TCE with CD3.23; also called AC3736) VH: QVQLVESGGGVVQPGRSLRLSCAASGRTFGIYVMGWFRQAPGKEREFVGAISWSGSNRKVSDSVKGRFTISRDNSKNTLYLQMNSLRAEDTAVYFCAASNKDYGRTWYDFNESDYWGQGTQVTVSS",–,70.6
"PSMA.358 (bispecific antibody, V domains shown, TCE with CD3.23; also called AC3760) VH: QVQLVESGGGVVQPGRSLRLSCAASGRTFGIYVWGWFRQAPGKEREFVGAMSWSGSNRKVSDSVKGRFTISRDNSKNTLYLQMNSLRAEDTAVYFCGGSNKLYGRTWYDFNESDYWGQGTQVTVSS",–,6.5

# Second part, the binder after the results:
binding result,Kd [nM],Binder
no binding,–,"PSMA.338 (bispecific antibody, V domains shown, TCE with CD3.23; also called AC3740) VH: QVQLVESGGGVVQPGRSLRLSCAASGRTFGIYVMGWFRQAPGKEREFVGAISWSGSNRKVSDSVKGRFTISRDNSKNTLYLQMNSLRAEDTAVRFCAGSNKLYGRTWYDFNESDYWGQGTQVTVSS"
no binding,–,"PSMA.342 (bispecific antibody, V domains shown, TCE with CD3.23; also called AC3744) VH: QVQLVESGGGVVQPGRSLRLSCAASGRTFGIYVMGWFRQAPGKEREFVGAISWSGSNRKVSDSVKGRFTISRDNSKNTLYLQMNSLRAEDTAVSFCAGSNKLYGRTWYDFNESDYWGQGTQVTVSS"
no binding,–,"PSMA.341 (bispecific antibody, V domains shown, TCE with CD3.23; also called AC3743) VH: QVQLVESGGGVVQPGRSLRLSCAASGRTFGIYVMGWFRQAPGKEREFVGAISWSGSNRKVSDSVKGRFTISRDNSKNTLYLQMNSLRAEDTAVKFCAGSNKLYGRTWYDFNESDYWGQGTQVTVSS"
no binding,–,"PSMA.352 (bispecific antibody, V domains shown, TCE with CD3.23; also called AC3754) VH: QVQLVESGGGVVQPGRSLRLSCAASGRTFGIYVWGWFRQAPGKEREFVGAMSWSGSNRKVSDSVKGRFTISRDNSKNTLYLQMNSLRAEDTAVDFCAASNKLYGRTWYDFNESDYWGQGTQVTVSS"
no binding,–,"PSMA.339 (bispecific antibody, V domains shown, TCE with CD3.23; also called AC3741) VH: QVQLVESGGGVVQPGRSLRLSCAASGRTFGIYVMGWFRQAPGKEREFVGAISWSGSNRKVSDSVKGRFTISRDNSKNTLYLQMNSLRAEDTAVNFCAGSNKLYGRTWYDFNESDYWGQGTQVTVSS"
no binding,–,"PSMA.333 (bispecific antibody, V domains shown, TCE with CD3.23; also called AC3735) VH: QVQLVESGGGVVQPGRSLRLSCAASGRTFGIYVMGWFRQAPGKEREFVGAISWSGSNRKVSDSVKGRFTISRDNSKNTLYLQMNSLRAEDTAVYFCAASNKRYGRTWYDFNESDYWGQGTQVTVSS"
no binding,–,"PSMA.337 (bispecific antibody, V domains shown, TCE with CD3.23; also called AC3739) VH: QVQLVESGGGVVQPGRSLRLSCAASGRTFGIYVMGWFRQAPGKEREFVGAISWSGSNRKVSDSVKGRFTISRDNSKNTLYLQMNSLRAEDTAVAFCAGSNKLYGRTWYDFNESDYWGQGTQVTVSS"
no binding,–,"PSMA.326 (bispecific antibody, V domains shown, TCE with CD3.23; also called AC3728) VH: QVQLVESGGGVVQPGRSLRLSCAASGRTFGIYVMGWFRQAPGKEREFVGAISWSGSNRKVSDSVKGRFTISRDNSKNTLYLQMNSLRAEDTAVNFCAASNKLYGRTWYDFNESDYWGQGTQVTVSS"
no binding,–,"PSMA.340 (bispecific antibody, V domains shown, TCE with CD3.23; also called AC3742) VH: QVQLVESGGGVVQPGRSLRLSCAASGRTFGIYVMGWFRQAPGKEREFVGAISWSGSNRKVSDSVKGRFTISRDNSKNTLYLQMNSLRAEDTAVGFCAGSNKLYGRTWYDFNESDYWGQGTQVTVSS"
no binding,–,"PSMA.327 (bispecific antibody, V domains shown, TCE with CD3.23; also called AC3729) VH: QVQLVESGGGVVQPGRSLRLSCAASGRTFGIYVMGWFRQAPGKEREFVGAISWSGSNRKVSDSVKGRFTISRDNSKNTLYLQMNSLRAEDTAVDFCAASNKLYGRTWYDFNESDYWGQGTQVTVSS"
